Experimental findings from patent US20220380484A1 (MONASH UNIVERSITY, published 2022) are described below.

One assay addresses T1, plasmin (human, UniProt P00747 20-580; P00747 581-810).
T1 construct: Bought plasmin (Haematologic Technologies) is named in the activity assay; also called Plm; PLM
Description: SPR, multi-cycle; G05 immobilised on the chip, plasmin injected as analyte; 1:1 Langmuir fit. Background: In SPR one partner is held on a chip, and binding of the other changes the refractive index at the surface.

Assay [1] addresses plasminogen (human) (UniProt P00747). The experiment in a line: cell-based or functional assay.
Assay [2] has the same target. The experiment in a line: SPR, multi-cycle; G05 immobilised on the chip, plasminogen injected as analyte; 1:1 Langmuir fit.
Assay [3] has the same target. Description: SPR (Biacore T200), antibody immobilised; FIG. 1.
Assay [4] addresses unactivatable mutant of plasminogen (recombinant plasminogen labelled with Alexa-Fluor 647) (human) (UniProt P00747). Description: flow cytometry: 22.2 nM Alexa-Fluor 647 plasminogen on Group A Streptococcus cells with 2.22 µM G05. (Flow cytometry measures light scatter and fluorescence of single cells or particles in a stream.)
The target is the same in assay [5]. Description: SDS-PAGE fluorescence scan of the bound fraction: 0.2 µM labelled plasminogen on Group A Streptococcus cells with 7.5 µM G05.
In assay [6] the target is plasminogen (human) (UniProt P00747). Description: SPR (Biacore T200), antibody immobilised; FIG. 2.
Assay [7] has the same target. The experiment in a line: SPR, multi-cycle; G11 immobilised on the chip, plasminogen injected as analyte; 1:1 Langmuir fit.

T1 sequence (P00747 20-580, chain 1 of 2): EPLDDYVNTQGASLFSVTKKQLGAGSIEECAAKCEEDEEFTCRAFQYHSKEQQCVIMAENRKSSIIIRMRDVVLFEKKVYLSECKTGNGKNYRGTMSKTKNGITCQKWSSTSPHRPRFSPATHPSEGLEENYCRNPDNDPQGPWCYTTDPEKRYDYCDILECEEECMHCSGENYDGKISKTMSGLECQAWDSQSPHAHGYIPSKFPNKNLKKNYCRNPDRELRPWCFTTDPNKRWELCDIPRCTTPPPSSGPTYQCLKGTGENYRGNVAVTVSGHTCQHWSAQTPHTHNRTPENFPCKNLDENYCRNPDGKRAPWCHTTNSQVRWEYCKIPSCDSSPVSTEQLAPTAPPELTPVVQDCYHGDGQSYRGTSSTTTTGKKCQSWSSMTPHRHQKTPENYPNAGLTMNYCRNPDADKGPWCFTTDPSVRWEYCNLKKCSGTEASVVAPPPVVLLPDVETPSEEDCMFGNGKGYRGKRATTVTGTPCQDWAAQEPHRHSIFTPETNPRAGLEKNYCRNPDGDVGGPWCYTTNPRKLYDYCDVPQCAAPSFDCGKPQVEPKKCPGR
T1 sequence (P00747 581-810, chain 2 of 2): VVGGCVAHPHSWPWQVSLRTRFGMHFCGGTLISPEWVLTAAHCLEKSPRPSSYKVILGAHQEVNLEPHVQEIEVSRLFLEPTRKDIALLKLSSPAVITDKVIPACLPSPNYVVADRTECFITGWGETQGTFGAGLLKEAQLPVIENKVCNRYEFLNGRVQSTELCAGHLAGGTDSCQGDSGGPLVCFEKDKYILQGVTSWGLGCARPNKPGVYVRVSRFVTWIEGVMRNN

B1: G05 antibody (scFv, V domains shown)
VH: AVTLDESGGGLQTPGRALSLVCKASGFTFSSYAMHWVRQAPGKGLEFVAGIDNIGSYTRYGAAVKGRVTISRDNGQSIVRLQLDNLRAEDTGTYYCAKSAYGGSCCGPAYIDAWGHGTEVIVSS
VL: QAALTQPSSVSANPGETVEITCSGGGRSSYYGWYQQKSPGSAPVTLIYDNTNRPSNIPSRFSGSKSGSTATLTITGVQGEDEAVYFCGSADSSTTGIFGAGTTLTVL
notes: Chicken antibody from an scFv library (VH and VL joined by a flexible linker); also called scFv fragment of G05
For B1, in the assay with plasmin, the Kd (as a rule, a measure of binding affinity in units of concentration) came out at 0.00076 µM; the koff – broadly, a measure of how fast the partners let go of each other – was 0.00046 s⁻¹; the kon (usually a measure of how fast the partners come together) stood at 640000 M⁻¹ s⁻¹. For the same molecule, in the assay with plasminogen (human) [1], the IC50 of tPA-mediated plasminogen activation in solution (20 nM plasminogen, 20 mM EACA, 4 nM tPA, fluorogenic plasmin substrate) came to 0.0173 µM and the IC50 of tPA-mediated plasminogen activation on a preformed fibrin clot (100 nM plasminogen) came out at 0.292 µM. Also, in the assay with plasminogen (human) [2], the Kd was 0.0079 µM, the koff amounted to 0.00071 s⁻¹ and the kon is 409000 M⁻¹ s⁻¹. Besides, the fold greater affinity for plasminogen compared to plasmin with plasminogen (human) [3] was 10 fold. For the same molecule, in assay [4], the percent inhibition of plasminogen binding to GAS cells is 40%. Further, in assay [5], the percent reduction in plasminogen binding to GAS cells was determined as 70%.

B2: G11 antibody (scFv, part only; not given: linker between domains, part only)
scFv, part: QAALTQPSSVSANPGEIVEITCSGGGTYYGWYQQKSPGSAPVTMIYQNNQRPSNIPSRFSGSGSGPANTLTITGVRAEDEAVYYCGGYDSSAGYATFGAGTTLTVLAVTLDESGGGLQTPGGGLSLVCKASGFSISSYSMYWVRQAPGKGLEFVASISSDGSDTSYGSAVKGRATISRDNGQSTVRLQLNYLRAEDTGTYFCAKPTGGYYTWYETGSIDTWGHGTEVIVSS
In the case of B2, in the assay with plasminogen (human) [6], the fold greater affinity for plasminogen compared to plasmin worked out at 10 fold. For the same molecule, in the assay with plasminogen (human) [1], the IC50 of tPA-mediated plasminogen activation in solution (20 nM plasminogen, 20 mM EACA, 4 nM tPA, fluorogenic plasmin substrate) came to 0.02 µM and the IC50 of tPA-mediated plasminogen activation on a preformed fibrin clot (100 nM plasminogen) came to 0.047 µM. Further, in the assay with plasminogen (human) [7], the Kd is 0.014 µM, the koff amounted to 0.0018 s⁻¹ and the kon came to 420000 M⁻¹ s⁻¹.
